Here are results for 2 molecules from PMC9114768 (Frontiers in Immunology, 2022).

As a reminder, the Kd is the constant that tells how readily two partners part at equilibrium.

Common to all, as to details: both partners purified
Test [1] deals with T1, S1-RBD peptide 13 (SARS-CoV-2 (YP_009724390)).
T1 construct: source: synthetic peptide (Leadgene Biomedical)
T1 chain: PFERDISTEIYQAGS
As to the kind of experiment: ELISA. Background: In an ELISA, binding on a coated surface is turned into a signal by an enzyme label.

Test [2] has as its target T2, C-terminal Fc-tagged human ACE2 recombinant protein (Homo sapiens, UniProt Q9BYF1).
T2 construct: also called ACE2-hFc; recombinant ACE2-hFc; source: CHO cells, purified (Leadgene Biomedical Cat. No. 63333); not shown: Fc (human, hFc), C-terminal, kept
As to the kind of experiment: SPR; Biacore T200; […]; mAb 1024 nM to 8 nM; 30 μL/min, 120 s association, 360 s dissociation; 25°C; 1:1 binding model.

Test [3] deals with His-tagged SARS-CoV-2 S1-RBD recombinant protein, wild type (SARS-CoV-2 (YP_009724390), UniProt P0DTC2). The experiment in a line: SPR; Biacore T200; […]; mAb 256 nM to 8 nM; 30 μL/min, 120 s association, 360 s dissociation; 25°C; 1:1 binding model. (In SPR one partner is held on a chip, and binding of the other changes the refractive index at the surface.)

T2 sequence (Q9BYF1 18-740): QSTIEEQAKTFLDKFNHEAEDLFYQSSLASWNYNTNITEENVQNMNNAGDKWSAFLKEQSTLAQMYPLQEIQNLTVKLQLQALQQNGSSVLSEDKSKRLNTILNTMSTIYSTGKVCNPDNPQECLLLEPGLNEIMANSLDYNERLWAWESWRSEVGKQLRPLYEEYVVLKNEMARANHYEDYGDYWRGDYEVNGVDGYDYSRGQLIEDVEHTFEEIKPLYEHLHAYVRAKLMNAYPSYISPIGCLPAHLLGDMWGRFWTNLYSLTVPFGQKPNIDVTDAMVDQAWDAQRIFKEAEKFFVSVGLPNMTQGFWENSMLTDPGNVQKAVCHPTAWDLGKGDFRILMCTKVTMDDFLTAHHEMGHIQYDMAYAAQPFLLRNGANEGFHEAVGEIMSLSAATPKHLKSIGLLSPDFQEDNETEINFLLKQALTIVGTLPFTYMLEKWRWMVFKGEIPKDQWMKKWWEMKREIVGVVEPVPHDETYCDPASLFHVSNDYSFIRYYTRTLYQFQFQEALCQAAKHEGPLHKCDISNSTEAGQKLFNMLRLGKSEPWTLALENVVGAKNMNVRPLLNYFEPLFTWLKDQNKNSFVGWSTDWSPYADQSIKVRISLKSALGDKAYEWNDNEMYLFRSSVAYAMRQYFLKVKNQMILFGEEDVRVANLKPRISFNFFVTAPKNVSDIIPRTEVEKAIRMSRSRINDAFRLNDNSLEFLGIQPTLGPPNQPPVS

B1: monoclonal antibody 127 (antibody, V domains shown)
VH: QVQLQQPGAELVKPGASVKLSCKASGYTFTSYWMHWVKQRPGQGLEWIGEINPSNGRKNYNEKFKSKATLTVDKSSSTAYMQLSSLTSEDSAVYYCVRGDYGSSYYWYFDVWGAGTTVTVSS
VL: not shown
On to B1, for which the binding result in test [1] is “binds”. Further, the Kd in test [2] stood at 16.1 nM; in test [3], 2.44 nM.

B2: monoclonal antibody 150 (antibody, V domains shown)
VH: QVQLQQPGAELVKPGASVKLSCKASGYTFTSYWMHWVKQRPGQGLEWIGEINPSNGRKNYNEKFKSKATLTVDKSSSTAYMQLSSLTSEDSAVYYCVRGDYGSSYYWYFDVWGAGTTVTVSS
VL: not shown
notes: also called mAb 150
Regarding B2, in test [1], the binding result is given as “binds”. In addition, the Kd stood at 2770 nM in test [2] and 3.87 nM in test [3].
